Source: publication doi:10.1101/2025.05.15.654217

Target: 3×FLAG–SpaO^L-V5pBpa (Salmonella enterica serovar Typhimurium SL1344) (UniProt P40699)
Test: cross-linking

Chain of UniProt P40699 (P40699 whole entry, looked up): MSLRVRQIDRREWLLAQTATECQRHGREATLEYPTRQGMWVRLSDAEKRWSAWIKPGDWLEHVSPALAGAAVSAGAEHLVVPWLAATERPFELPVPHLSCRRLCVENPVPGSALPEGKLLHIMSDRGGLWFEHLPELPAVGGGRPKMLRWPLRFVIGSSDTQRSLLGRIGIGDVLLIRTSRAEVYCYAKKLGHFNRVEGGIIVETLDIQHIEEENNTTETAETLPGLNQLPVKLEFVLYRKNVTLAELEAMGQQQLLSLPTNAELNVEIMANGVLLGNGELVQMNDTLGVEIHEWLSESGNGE

With “M45-SpaO^short F34pBpa (natural protein)” the stoichiometry N (SpaO^short per SpaO^L) was 2.
